Assay results taken from patent US20090130105A1.

Molecular target: All other mutant IGF-1R constructs
Test: SPR, Fab over captured mutant hIGF-1R-Fc; all of SD001-SD019 other than SD015

Kd | Binder
1 nM | M13-C06 Fab (Fab, V domains shown) VH: EVQLLESGGGLVQPGGSLRLSCAASGFTFSIYRMQWVRQAPGKGLEWVSGISPSGGTTWYADSVKGRFTISRDNSKNTLYLQMNSLRAEDTAVYYCARWSGGSGYAFDIWGQGTMVTVSS VL: DIQMTQSPLSLSASVGDRVTITCQASRDIRNYLNWYQQKPGKAPKLLIYDASSLQTGVPSRFGGSGSGTDFSFTIGSLQPEDIATYYCQQFDSLPHTFGQGTKLEIK
5 nM | M14-C03 Fab (Fab, V domains shown) VH: EVQLLESGGGLVQPGGSLRLSCAASGFTFSKYMMSWVRQAPGKGLEWVSYISPSGGLTWYADSVKGRFTISRDNSKNTLYLQMNSLRAEDTAVYYCARDGARGYGMDVWGQGTTVTVSS VL: DIQMTQSPATLSLSPGERATLSCRASQSVSSYLAWYQQKPGQAPRLLIYDASNRATGIPARFSGSGSGTDFTLTISSLEPEDFAVYYCQQRSNWPPEVTFGPGTKVDIK
